The text below walks through data of article PMC5052646, “DNA annealing by Redβ is insufficient for homologous recombination and the additional requirements involve intra- and inter-molecular interactions” (Scientific Reports, 2016).

Data set [1] deals with T1, wt Redβ, Strep-tag II tagged, purified (λ phage), P03698.
T1 chain: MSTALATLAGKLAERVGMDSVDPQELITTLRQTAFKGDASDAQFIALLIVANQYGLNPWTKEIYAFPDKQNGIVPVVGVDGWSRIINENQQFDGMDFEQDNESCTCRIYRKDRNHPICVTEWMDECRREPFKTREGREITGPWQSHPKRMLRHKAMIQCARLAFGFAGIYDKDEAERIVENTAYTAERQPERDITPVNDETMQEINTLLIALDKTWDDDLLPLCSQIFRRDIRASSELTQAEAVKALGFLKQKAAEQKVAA
Nature of the data set: ITC; Redα (150 μM) injected in 2 μl steps at 3 min intervals into the cell with Redβ (15 μM); 25 °C; 20 mM HEPES, 150 mM sodium chloride, 1 mM magnesium chloride, 0.5 mM TECP, pH 8; single-site binding model. The conditions noted are these: remark: other sources report otherwise. (Isothermal titration calorimetry measures the heat released or taken up as one component is titrated into another.)

Data set [2] deals with the molecule itself. Nature of the data set: SEC-MALS; SEC peaks analysed by DLS and SLS/MALS (Dawn Heleos II); purified Redβ proteins injected at 1 mg/ml; species after elution (dilution); without DNA. A general note: Size exclusion chromatography separates by hydrodynamic size, large species first.
Data set [3] deals with T2, Redβ wt (phage lambda, UniProt P03698 1-261).
T2 sequence: T1 chain
As to the kind of experiment: EMSA; 10 uM protein, 1 uM DNA; weak ssDNA binding (smear), non-complementary Cy5 oligo added; EMSA: 10 uM protein, 1 uM DNA, 20 mM Tris-HCl pH 7.5, 10 mM NaCl, 10 mM MgCl2, 37 C 30 min (+30 min after complementary oligo), 1.2-1.6% agarose, 2x TBE. The conditions noted are these: protein: recombinant; single strand. In general terms: In EMSA bound probe runs differently from free probe, usually more slowly.

The target of data set [4] is T3, C3Redβ (phage lambda, UniProt P03698 1-185).
T3 sequence: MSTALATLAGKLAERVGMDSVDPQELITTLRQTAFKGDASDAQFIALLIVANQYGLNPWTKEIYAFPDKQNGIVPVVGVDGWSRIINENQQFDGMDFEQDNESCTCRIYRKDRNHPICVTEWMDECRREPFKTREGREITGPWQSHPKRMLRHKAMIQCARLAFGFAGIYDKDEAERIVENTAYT
The description is as above. The conditions noted are these: protein: recombinant; tags: Strep-tag II; N-terminal per Methods, C-terminal per legends; single strand.

In data set [5] the target is T2, Redβ wt. Nature of the data set: EMSA; sequential addition of strands; annealed nucleoprotein filament; EMSA: 10 uM protein, 1 uM DNA, 20 mM Tris-HCl pH 7.5, 10 mM NaCl, 10 mM MgCl2, 37 C 30 min (+30 min after complementary oligo), 1.2-1.6% agarose, 2x TBE. The conditions noted are these: protein: recombinant; label: 5'-Cy3 on one strand, 5'-Cy5 on the other; 49 bp, 5' overhang 1 nt at each end as printed; annealed by the protein.

Data set [6] has as its target T3, C3Redβ. Described as above. The conditions noted are these: protein: recombinant; tags: Strep-tag II; N-terminal per Methods, C-terminal per legends; label: 5'-Cy3 on one strand, 5'-Cy5 on the other; 49 bp, 5' overhang 1 nt at each end as printed; annealed by the protein.

B1: Redα, Strep-tag II tagged, purified, P03697 1-226 (enzyme)
chain: MTPDIILQRTGIDVRAVEQGDDAWHKLRLGVITASEVHNVIAKPRSGKKWPDMKMSYFHTLLAEVCTGVAPEVNAKALAWGKQYENDARTLFEFTSGVNVTESPIIYRDESMRTACSPDGLCSDGNGLELKCPFTSRDFMKFRLGGFEAIKSAYMAQVQYSMWVTRKNAWYFANYDPRMKREGLHYVVIERDEKYMASFDEIVPEFIEKMDEALAEIGFVFGEQWR
As to B1, in data set [1], the Kd worked out at 7.9 µM and the dH was -9.84 kcal/mol.

B2: wt Redβ, Strep-tag II tagged, purified (natural protein, λ phage, UniProt P03698 1-261, looked up)
chain: T1 chain
notes: Redβ, single strand annealing protein of λ phage; the ORF cloned into pASK-IBA2; 261 residues by the printed limits of the truncations; also called wild type Redβ; not shown: Strep-tag II, C-terminal, kept
For B2, in data set [2], the “Dist (%) of Species 3 (1 subunit, monomer)” value (from here on “Dist (%)”) was 68.2%.

B3: Cy3 50-mer ssDNA (ssDNA)
DNA: CCATCCGCAAAAATCGAGCTATGCAGGGCGATTCTGCTCTAAGCCATCCG
With B3, the binding result with Redβ wt [3] and with C3Redβ [4] was “binds” throughout.

B4: 50-mer complementary pair, sequentially added (dsDNA)
DNA 1: B3 DNA
DNA 2: GCGGATGGCTTAGAGCAGAATCGCCCTGCATAGCTCGATTTTTGCGGATG
As to B4, the binding result in the data set with Redβ wt [5] and with C3Redβ [6] was “binds” in each case.

B5: C3Redβ (1–185), Strep-tag II tagged, purified (domain or fragment, λ phage, UniProt P03698 1-185, looked up)
chain: T3 sequence
notes: Redβ of λ phage, residues 1-185 (C-terminal truncation C3); also called C3 deletion; C3-truncated Redβ; not shown: Strep-tag II, C-terminal, kept
With B5, in data set [2], the “Dist (%)” value came to 9.3%.

B6: N1Redβ (20–261), Strep-tag II tagged, purified (domain or fragment, λ phage, UniProt P03698 20-261, looked up)
chain: SVDPQELITTLRQTAFKGDASDAQFIALLIVANQYGLNPWTKEIYAFPDKQNGIVPVVGVDGWSRIINENQQFDGMDFEQDNESCTCRIYRKDRNHPICVTEWMDECRREPFKTREGREITGPWQSHPKRMLRHKAMIQCARLAFGFAGIYDKDEAERIVENTAYTAERQPERDITPVNDETMQEINTLLIALDKTWDDDLLPLCSQIFRRDIRASSELTQAEAVKALGFLKQKAAEQKVAA
notes: Redβ of λ phage, residues 20-261 (N-terminal truncation N1); also called N1 deletion; not shown: Strep-tag II, C-terminal, kept
On to B6, for which the “Dist (%)” value in data set [2] was determined as 7.4%.

One may read the Kd as the constant that tells how readily two partners part at equilibrium. Read a high Kd as lower affinity.
